Paper PMC4991852, “The Sac3 TPR-like region in the Saccharomyces cerevisiae TREX-2 complex is more extensive but independent of the CID region” (Journal of Structural Biology, 2016)

T1: Sac3 (residues 140-805) (S. cerevisiae, UniProt P46674 140-805)
T1 construct: Sac3, S. cerevisiae, residues 140-805 by the complex's name; the text says that residues 1-140 were deleted; also called Sac3 of TREX-2^140–805
T1 sequence (looked up): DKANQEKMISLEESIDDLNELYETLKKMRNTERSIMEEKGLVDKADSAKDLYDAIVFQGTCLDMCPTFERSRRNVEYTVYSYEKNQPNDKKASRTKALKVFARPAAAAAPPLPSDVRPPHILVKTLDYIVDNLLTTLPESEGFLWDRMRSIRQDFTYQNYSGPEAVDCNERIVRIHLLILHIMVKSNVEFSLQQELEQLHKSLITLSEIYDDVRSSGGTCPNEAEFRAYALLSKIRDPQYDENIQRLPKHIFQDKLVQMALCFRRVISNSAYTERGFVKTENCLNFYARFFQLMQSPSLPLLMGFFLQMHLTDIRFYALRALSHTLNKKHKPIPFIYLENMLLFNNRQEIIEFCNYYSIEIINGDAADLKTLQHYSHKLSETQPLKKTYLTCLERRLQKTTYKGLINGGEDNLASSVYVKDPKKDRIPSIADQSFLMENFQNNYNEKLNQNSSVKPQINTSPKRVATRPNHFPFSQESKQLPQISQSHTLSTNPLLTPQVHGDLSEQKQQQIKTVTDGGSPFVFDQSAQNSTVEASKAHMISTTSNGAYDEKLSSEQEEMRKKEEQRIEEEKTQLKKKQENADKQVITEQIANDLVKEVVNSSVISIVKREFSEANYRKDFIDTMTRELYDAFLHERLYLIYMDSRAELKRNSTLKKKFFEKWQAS


Target: T1, Sac3 (residues 140-805)
Experiment: SEC-SAXS; on-line HPLC with Superdex 200 Increase 3.2/300, beamline BM29 (ESRF), 20 °C; mass from I(0) against a BSA standard
Conditions: both partners purified

Binder	binding result
Sem1 (natural protein, S. cerevisiae, UniProt O94742 1-89, looked up, Sem1, S. cerevisiae; source: Sf9, baculovirus, co-expressed with GST-Sac3; in lysate and purified with the complex (glutathione Sepharose, heparin, SEC)) MSTDVAAAQAQSKIDLTKKKNEEINKKSLEEDDEFEDFPIDTWANGETIKSNAVTQTNIWEENWDDVEVDDDFTNELKAELDRYKRENQ	binds
Thp1 (natural protein, S. cerevisiae, UniProt Q08231 1-455, looked up, Thp1, S. cerevisiae; The theoretical mass of 195 kDa for TREX-2^1-805 fits whole chains of the four small subunits; source: Sf9, baculovirus, co-expressed with GST-Sac3; in lysate and purified with the complex (glutathione Sepharose, heparin, SEC)) MDMANQLLDELAHGNFSHLTLNLSQNGREIAILQKQLTGFDDKQLETFVEQHPAMPNDTRFKIMCTSFLNYARDVDPWSAWSSSDLIFEFYQCLINCLINDNAPHIEMLIPVATRETEFIINLAGKLDSFHLQLHTRSHQFLSHISSILSRLFNSIKPPRGNASSTNIPGKQRILLYLVNKLNNIYFRIESPQLCSNIFKNFQPKSMLAHFNEYQLDQQIEYRYLLGRYYLLNSQVHNAFVQFNEAFQSLLNLPLTNQAITRNGTRILNYMIPTGLILGKMVKWGPLRPFLSQETIDNWSVLYKHVRYGNIQGVSLWLRQNERHLCARQLLIVLLEKLPMVTYRNLIKTVIKSWTTEWGQNKLPYSLIERVLQLSIGPTFEDPGAQEITIYNGIHSPKNVENVLVTLINLGLLRANCFPQLQLCVVKKTTMIQEIVPPVNERITKMFPAHSHVLW	binds
Sus1 (natural protein, S. cerevisiae, UniProt Q6WNK7 1-96, looked up, Sus1, S. cerevisiae; source: Sf9, baculovirus, co-expressed with GST-Sac3; in lysate and purified with the complex (glutathione Sepharose, heparin, SEC)) MTMDTAQLKSQIQQYLVESGNYELISNELKARLLQEGWVDKVKDLTKSEMNINESTNFTQILSTVEPKALEMVSDSTRETVLKQIREFLEEIVDTQ	binds
Cdc31 (natural protein, S. cerevisiae, UniProt P06704 1-161, looked up, Cdc31, S. cerevisiae; source: Sf9, baculovirus, co-expressed with GST-Sac3; in lysate and purified with the complex (glutathione Sepharose, heparin, SEC)) MSKNRSSLQSGPLNSELLEEQKQEIYEAFSLFDMNNDGFLDYHELKVAMKALGFELPKREILDLIDEYDSEGRHLMKYDDFYIVMGEKILKRDPLDEIKRAFQLFDDDHTGKISIKNLRRVAKELGETLTDEELRAMIEEFDLDGDGEINENEFIAICTDS	binds
